The values that follow come from article PMC9933121 (Proceedings of the National Academy of Sciences of the …, 2023).

Assay [1] has as its target T1, DENV2 strain 16681 premembrane (prM) protein, wild type (Dengue virus 2 strain 16681 (NC_001474)).
T1 chain: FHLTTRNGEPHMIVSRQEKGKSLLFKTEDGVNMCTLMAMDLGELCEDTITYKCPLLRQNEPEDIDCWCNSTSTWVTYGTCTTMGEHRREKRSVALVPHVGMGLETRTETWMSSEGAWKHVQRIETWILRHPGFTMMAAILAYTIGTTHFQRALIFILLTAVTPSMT
In words: cell-based or functional assay.

Assay [2] concerns the target DENV2 strain 16681 premembrane (prM) protein, wild type (dengue virus 2 strain 16681).
The target in assay [3] is trimeric prM–E spike of immature DENV2 strain 16681 virions (dengue virus 2 strain 16681). In words: cryo-EM structure.

B1: prM13, murine prM-reactive monoclonal antibody (IgG2c) (antibody, V domains shown)
VH: AAQLQESGPELVKPGASVKISCKASGYTFTDYFINWVRQSHGKSLEWIGDFYPNNRGPTYNQKFEGKATLTVDKSSSTAYMELRSLTSDDSAVYYCARGLWDAWLSYWGQGTLVTVSA
VL: AIVATQSPAIMSASPGEKVTISCSASSSVSYMYWYQQKPGSSPKPWIYRTSNLASGVPTRFSGSGSGTSYSFTISSMEAEDAATYYCQQYHNYPRTFGGGTKAKSA
On to B1, for which, in assay [1], the “neutralisation of DENV2 RVPs, EC50 of the sensitive fraction of virions” value was around 5 ng/mL.

B2: prM12, murine prM-reactive monoclonal antibody (IgG2c) (antibody, V domains shown)
VH: EVQLQESGPELVKPGTSVKMSCKASGYTFTDYNIHWVKQSHGKSLEWIGYINPNNGGNKYTQKFEGRATLTVGKSSSTAYMELRSLTSEDSAVYYCARSPMYFYYDGSYYFDYWGQGTSLSVSS
VL: DIVLTQSPASLAVSLGQRATISYRASKSVSTSGYSYMHWNQQKPGQPPRLLIYLVSNLESGVPARFSGSGSGTDFTLNIHPVEEEDAATYYCQHIRELTFGAAPSAAAR
With B2, in assay [2], the neutralisation of DENV2 RVPs, EC50 of the sensitive fraction of virions came to 5 ng/mL.

B3: prM12 Fab fragment (Fab, V domains shown)
VH: EVQLQESGPELVKPGTSVKMSCKASGYTFTDYNIHWVKQSHGKSLEWIGYINPNNGGNKYTQKFEGRATLTVGKSSSTAYMELRSLTSEDSAVYYCARSPMYFYYDGSYYFDYWGQGTSLSVSS
VL: DIVLTQSPASLAVSLGQRATISYRASKSVSTSGYSYMHWNQQKPGQPPRLLIYLVSNLESGVPARFSGSGSGTDFTLNIHPVEEEDAATYYCQHIRELTFGAAPSAAAR
Consider B3, for which the occupancy in assay [3] stood at 100%.
